For this data set the following is noted: Homo sapiens, 25 °C, Urea, Fluorescence, Potassium phosphate 25 mM, NaCl 25 mM, reversible: Yes, whole UniProt chain shown.

B1: Prolactin wild type, P01236 (protein)
chain: MNIKGSPWKGSLLLLLVSNLLLCQSVAPLPICPGGAARCQVTLRDLFDRAVVLSHYIHNLSSEMFSEFDKRYTHGRGFITKAINSCHTSSLATPEDKEQAQQMNQKDFLSLIVSILRSWNEPLYHLVTEVRGMQEAPEAILSKAVEIEEQTKRLLEGMELIVSQVHPETKENEIYPVWSGLPSLQMADEESRLSAYYNLLHCLRRDSHKIDNYLKLLKCRIIHNNNC
Regarding B1, under “pH 5.8”, the denaturant m value worked out at 0.79 kcal/mol/M, the “denaturant midpoint (higher = more stable)” value is 5.48 M and the unfolding free energy worked out at 4.3 kcal/mol. Where the note is “pH 7.8”, the denaturant m value was 1.35 kcal/mol/M, the “denaturant midpoint (higher = more stable)” value worked out at 6.08 M and the unfolding free energy worked out at 8.2 kcal/mol.

The values are drawn from FireProtDB (doi:10.1002/pro.100).
